B1: chicken erythrocyte histone H5 (natural protein)
chain: MTESLVLSPAPAKPKRVKASRRSASHPTYSEMIAAAIRAEKSRGGSSRQSIQKYIKSHYKVGHNADLQIKLSIRRLLAAGVLKQTKGVGASGSFRLAKSDKAKRSPGKKKKAVRRSTSPKKAARPRKARSPAKKPKATARKARKKSRASPKKAKKPKTVKAKSRKASKAKKVKRSKPRAKSGARKSPKKK

Each molecule was assayed against H1- and H5-depleted chicken erythrocyte chromatin (DNA-core histone complex) (chicken (endogenous in erythrocytes)) (assay: co-sedimentation).

| stoichiometry N (linker histone molecules per nucleosome) | Molecule |
| --- | --- |
| 2 | calf thymus histone H1 (from UniProt P02253 1-213) (natural protein) |
| 2 | chicken erythrocyte histone H1 (from UniProt P09987 1-218) (natural protein) |
| 2 | B1 |
